Molecular target: capsid triplex (heterotrimer of two mCP and one mC-BP) (human cytomegalovirus (HCMV) strain AD169) (UniProt P16728)
Experiment: cryo-EM structure

tegument protein pp150 (from UniProt P08318 1-1048) (natural protein)
stoichiometry N (copies per triplex): 3

— publication PMC3744435
